Ends that are not written are not given here. * marks the point of attachment. Biotin = O=C1N[C@H]2[C@H](CS[C@H]2CCCCC(=O)*)N1
B1: CD98 (2F4) C-terminal PL peptide AA15L, biotinylated (peptide)
peptide: Biotin-ERLKLEPHEGLLLRFPYAA
B2: CDW128B (IL8RB) C-terminal PL peptide AA29.2L, biotinylated (peptide)
peptide: Biotin-KDSRPSFVGSSSGHTSTTL
B3: CD83 C-terminal PL peptide AA47L, biotinylated (peptide)
peptide: Biotin-VTSPNKHLGLVTPHKTELV
B4: CD138 (syndecan) C-terminal PL peptide AA18L, biotinylated (peptide)
peptide: Biotin-PKQANGGAYQKPTKQEEFYA

What follows are binders tested against T1, GST-MPP2 PDZ domain fusion protein (maguk p55 subfamily member 2 (DLG2) AA185-273; PDZ domain 1 of 1) (UniProt P08515 1-218 = GST) (assay: G assay).
T1 construct: also called MMP2
T1 sequence (P08515 1-218, tags or fused parts left off): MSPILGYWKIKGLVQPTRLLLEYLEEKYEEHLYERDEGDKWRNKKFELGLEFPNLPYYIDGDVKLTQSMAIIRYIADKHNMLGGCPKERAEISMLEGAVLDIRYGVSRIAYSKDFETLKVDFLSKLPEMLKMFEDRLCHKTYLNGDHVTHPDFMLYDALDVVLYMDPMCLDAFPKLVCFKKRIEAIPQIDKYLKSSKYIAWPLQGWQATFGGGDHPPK

| Binder | binding result |
| --- | --- |
| B1 | binds |

Each binder was assayed against GST-PTN-4 PDZ domain fusion protein (protein-tyrosine phosphatase meg1 AA774-862; PDZ domain 1 of 1) (UniProt P08515 1-218 = GST) (assay: A/G assays).

| Binder | binding result |
| --- | --- |
| B2 | no binding |
| B3 | no binding |
| B4 | no binding |
| B1 | no binding |

The binders below were run against GST-LIMK2 PDZ domain fusion protein (human LIM domain kinase 2 AA185-275; PDZ domain 1 of 1) (human, UniProt P08515 1-218 = GST) (assay: A/G assays).

| Binder | binding result |
| --- | --- |
| B2 | no binding |
| B3 | no binding |
| B4 | no binding |
| B1 | no binding |

What follows are binders tested against GST-AF6 PDZ domain fusion protein (af-6 protein AA985-1077; PDZ domain 1 of 1) (UniProt P08515 1-218 = GST) (assay: A/G assays).
Sequence of GST-AF6 PDZ domain fusion protein (af-6 protein AA985-1077; PDZ domain 1 of 1) (P08515 1-218, tags or fused parts left off): as above

| Binder | binding result |
| --- | --- |
| B2 | no binding |
| B3 | no binding |
| B4 | no binding |
| B1 | no binding |

The binders below were run against T2, GST-CBP PDZ domain fusion protein (Cytohesin binding protein HE AA85-175; PDZ domain 1 of 1) (UniProt P08515 1-218 = GST) (assay: A/G assays).
T2 construct: also called Prot

| Binder | binding result |
| --- | --- |
| B2 | no binding |
| B3 | no binding |
| B4 | no binding |
| B1 | no binding |

The binders below were run against T3, GST-KIAA0303 PDZ domain fusion protein (KIAA0303 AA652-742; PDZ domain 1 of 1) (UniProt P08515 1-218 = GST) (assay: A/G assays).
T3 construct: also called K303
T3 sequence (P08515 1-218, tags or fused parts left off): as above

| Binder | binding result |
| --- | --- |
| B2 | no binding |
| B3 | no binding |
| B4 | no binding |
| B1 | no binding |

Each binder was assayed against T4, GST-41.8 kD PDZ domain fusion protein (hypothetical 41.8 kD protein AA4-85; PDZ domain 1 of 1) (UniProt P08515 1-218 = GST) (assay: A/G assays).
T4 construct: also called hypoth
T4 sequence (P08515 1-218, tags or fused parts left off): as above

| Binder | binding result |
| --- | --- |
| B3 | no binding |
| B1 | no binding |

What follows are binders tested against T5, GST-KIAA0559 PDZ domain fusion protein (KIAA0559 AA766-870; PDZ1 of 1) (UniProt P08515 1-218 = GST) (assay: A/G assays).
T5 construct: also called K559
T5 sequence (P08515 1-218, tags or fused parts left off): as above

| Binder | binding result |
| --- | --- |
| B2 | no binding |
| B3 | no binding |
| B4 | no binding |
| B1 | no binding |

The binders below were run against T6, GST-TAX2 PDZ domain fusion protein (human tax interaction protein 2 AA54-140; PDZ domain 1 of 1) (human, UniProt P08515 1-218 = GST) (assay: A/G assays).
T6 construct: also called TX 2
T6 sequence (P08515 1-218, tags or fused parts left off): as above

| Binder | binding result |
| --- | --- |
| B2 | no binding |
| B3 | no binding |
| B4 | no binding |
| B1 | no binding |

These binders were tested against T7, GST-PSD95 PDZ domain fusion protein (human post-synaptic density protein 95 AA387-724; PDZ domains 1-3 of 3) (human, UniProt P08515 1-218 = GST) (assay: A/G assays).
T7 sequence (P08515 1-218, tags or fused parts left off): as above

| Binder | binding result |
| --- | --- |
| B4 | no binding |
| B1 | no binding |

These binders were tested against GST-NOS1 PDZ domain fusion protein (human neuronal nitric oxide synthase; PDZ domain 1 of 1) (human, UniProt P08515 1-218 = GST) (assay: A/G assays).
Sequence of GST-NOS1 PDZ domain fusion protein (human neuronal nitric oxide synthase; PDZ domain 1 of 1) (P08515 1-218, tags or fused parts left off): as above

| Binder | binding result |
| --- | --- |
| B2 | no binding |
| B3 | no binding |
| B4 | no binding |
| B1 | no binding |

Each binder was assayed against T8, GST-CASK PDZ domain fusion protein (CASK AA495-584; PDZ domain 1 of 1) (mouse, UniProt P08515 1-218 = GST) (assay: A/G assays).
T8 construct: also called mCASK
T8 sequence (P08515 1-218, tags or fused parts left off): as above

| Binder | binding result |
| --- | --- |
| B2 | no binding |
| B3 | no binding |
| B1 | no binding |

The binders below were run against T9, GST-TAX40 PDZ domain fusion protein (human tax interaction protein 40 AA35-137; PDZ domain 1 of 1) (human, UniProt P08515 1-218 = GST) (assay: A/G assays).
T9 construct: also called TX 40
T9 sequence (P08515 1-218, tags or fused parts left off): as above

| Binder | binding result |
| --- | --- |
| B2 | no binding |
| B3 | no binding |
| B4 | no binding |
| B1 | no binding |

Each binder was assayed against GST-DVL1 PDZ domain fusion protein (human dishevelled segment polarity protein homolog AA248-340); PDZ domain … (human, UniProt P08515 1-218 = GST) (assay: A/G assays).
Sequence of GST-DVL1 PDZ domain fusion protein (human dishevelled segment polarity protein homolog AA248-340); PDZ domain … (P08515 1-218, tags or fused parts left off): as above

| Binder | binding result |
| --- | --- |
| B2 | no binding |
| B3 | no binding |
| B4 | no binding |
| B1 | no binding |

Each binder was assayed against T10, GST-TAX33 PDZ domain fusion protein (tax interaction protein 33 AA73-162; PDZ domain 1 of 1) (UniProt P08515 1-218 = GST) (assay: A/G assays).
T10 construct: also called TX33
T10 sequence (P08515 1-218, tags or fused parts left off): as above

| Binder | binding result |
| --- | --- |
| B2 | no binding |
| B3 | no binding |
| B4 | no binding |
| B1 | no binding |

What follows are binders tested against T11, GST-TIAM1 PDZ domain fusion protein (T-lymphoma invasion and metastasis inducing protein 1 AA1001-1088); PDZ 1 … (UniProt P08515 1-218 = GST) (assay: A/G assays).
T11 sequence (P08515 1-218, tags or fused parts left off): as above

| Binder | binding result |
| --- | --- |
| B2 | no binding |
| B3 | no binding |
| B1 | no binding |

Each binder was assayed against T12, GST-SYN1a PDZ domain fusion protein (alpha1-syntrophin AA96-189; PDZ domain 1 of 1) (UniProt P08515 1-218 = GST) (assay: A/G assays).
T12 construct: also called SYN 1 alpha; SYNTR 1 alpha
T12 sequence (P08515 1-218, tags or fused parts left off): as above

| Binder | binding result |
| --- | --- |
| B2 | no binding |
| B3 | no binding |
| B4 | no binding |
| B1 | no binding |

The binders below were run against T13, GST-NeDLG PDZ domain fusion protein (presynaptic protein sao102, neuroendocrine-dlg; PDZ domains 1-2 of 3) (UniProt P08515 1-218 = GST) (assay: A/G assays).
T13 construct: also called NeDLG1
T13 sequence (P08515 1-218, tags or fused parts left off): as above

| Binder | binding result |
| --- | --- |
| B4 | no binding |
| B1 | no binding |

These binders were tested against GST-LIM PDZ domain fusion protein (Human LIM protein AA29-112; PDZ domain 1 of 1) (human, UniProt P08515 1-218 = GST) (assay: A/G assays).
Sequence of GST-LIM PDZ domain fusion protein (Human LIM protein AA29-112; PDZ domain 1 of 1) (P08515 1-218, tags or fused parts left off): as above

| Binder | binding result |
| --- | --- |
| B2 | no binding |
| B3 | no binding |
| B4 | no binding |
| B1 | no binding |

Each binder was assayed against GST-MINT3 PDZ domain fusion protein (human MINT3 AA11-52; PDZ domain 1 of 1) (human, UniProt P08515 1-218 = GST) (assay: A/G assays).

| Binder | binding result |
| --- | --- |
| B2 | no binding |
| B3 | no binding |
| B4 | no binding |
| B1 | no binding |

What follows are binders tested against GST-MPP1 PDZ domain fusion protein (55 Kd erythrocyte membrane protein AA101-186; PDZ domain 1 of 1) (UniProt P08515 1-218 = GST) (assay: A/G assays).
Sequence of GST-MPP1 PDZ domain fusion protein (55 Kd erythrocyte membrane protein AA101-186; PDZ domain 1 of 1) (P08515 1-218, tags or fused parts left off): as above

| Binder | binding result |
| --- | --- |
| B2 | no binding |
| B3 | no binding |
| B4 | no binding |
| B1 | no binding |

The binders below were run against T14, GST-TAX43 PDZ domain fusion protein (human tax interaction protein 43 AA15-85; PDZ domain 1 of 1) (human, UniProt P08515 1-218 = GST) (assay: A/G assays).
T14 construct: also called TX 43
T14 sequence (P08515 1-218, tags or fused parts left off): as above

| Binder | binding result |
| --- | --- |
| B2 | no binding |
| B3 | no binding |
| B4 | no binding |
| B1 | no binding |

Each binder was assayed against GST-prIL16 PDZ domain fusion protein (putative interleukin 16 precursor AA170-383; PDZ domains 1-2 of 2) (UniProt P08515 1-218 = GST) (assay: A/G assays).
Sequence of GST-prIL16 PDZ domain fusion protein (putative interleukin 16 precursor AA170-383; PDZ domains 1-2 of 2) (P08515 1-218, tags or fused parts left off): as above

| Binder | binding result |
| --- | --- |
| B2 | no binding |
| B3 | no binding |
| B4 | no binding |
| B1 | no binding |

These binders were tested against T1, GST-MPP2 PDZ domain fusion protein … (assay: A/G assays).

| Binder | binding result |
| --- | --- |
| B2 | no binding |
| B3 | no binding |
| B4 | no binding |

Each binder was assayed against T15, GST-RGS12 PDZ domain fusion protein (human regulator of G-protein signalling 12 AA35-103; PDZ domain 1 of 1) (human, UniProt P08515 1-218 = GST) (assay: A/G assays).
T15 construct: also called RSG12
T15 sequence (P08515 1-218, tags or fused parts left off): as above

| Binder | binding result |
| --- | --- |
| B3 | no binding |
| B4 | no binding |
| B1 | no binding |

The binders below were run against T16, GST-KIAA0316 PDZ domain fusion protein (KIAA0316 AA197-284; PDZ domain 1 of 1) (UniProt P08515 1-218 = GST) (assay: A/G assays).
T16 construct: also called K316
T16 sequence (P08515 1-218, tags or fused parts left off): as above

| Binder | binding result |
| --- | --- |
| B2 | no binding |
| B3 | no binding |
| B4 | no binding |
| B1 | no binding |

What follows are binders tested against T4, GST-41.8 kD PDZ domain fusion protein … (assay: A and G assays).

| Binder | binding result |
| --- | --- |
| B4 | binds |

Each binder was assayed against T13, GST-NeDLG PDZ domain fusion protein … (assay: A and G assays).

| Binder | binding result |
| --- | --- |
| B2 | binds |

These binders were tested against T4, GST-41.8 kD PDZ domain fusion protein … (assay: A assay).

| Binder | binding result |
| --- | --- |
| B2 | binds |

The binders below were run against T7, GST-PSD95 PDZ domain fusion protein … (assay: A assay).

| Binder | binding result |
| --- | --- |
| B2 | binds |
| B3 | binds |

These binders were tested against T11, GST-TIAM1 PDZ domain fusion protein … (assay: A assay).

| Binder | binding result |
| --- | --- |
| B4 | binds |

The binders below were run against T13, GST-NeDLG PDZ domain fusion protein … (assay: A assay).

| Binder | binding result |
| --- | --- |
| B3 | binds |

Reference: patent US20090149339A1 (published 2009)
